The target in assay [1] is T1, His-tagged human CTLA4 protein (human, UniProt P16410 36-161, limits assumed).
T1 construct: not shown: His tag
Kind of assay: Octet BLI, mAb captured. On the technique in general: In BLI a coated tip is dipped into the sample, and binding shifts an interference pattern.

In assay [2] the target is T2, His-tagged human CD28 protein (human, UniProt P10747 19-152).
T2 construct: not shown: His tag
Kind of assay: Octet BLI, mAb captured.

In assay [3] the target is T3, Human CD28 on cells (human, UniProt P10747 19-220).
T3 construct: Jurkat E6-1 cells, primary human T cells, or transfected HEK293F cells; also called CD28 on Jurkat cells; CD28 on human CD3+ T cells
Kind of assay: flow cytometry, Jurkat cells. In general terms: A flow cytometer gives signals particle by particle.
Method: Next, the cells were washed twice with DPBS and further incubated with a APC-anti-human IgG Fc secondary antibody (1 μg/mL, 100 μL/well, Biolegend) for 30 minutes at 4° C. Finally, the cells were washed twice with DPBS and suspended in FACS buffer for flow cytometry analysis. For analysis, the Mean Fluorescence Intensity (MFI) values versus concentrations were plotted using FlowJo 10 software (FlowJo LLC) and the data were further fitted with four-parameter non-linear regression to obtain EC₅₀ values by GraphPad Prism version 7 for Windows, GraphPad Software, La Jolla California USA, www.graphpad.com.

Assay [4] deals with T4, Human CD28 (ELISAs of Examples 4 and 13) (human, UniProt P10747 19-152, limits assumed). Kind of assay: ELISA. Background: In an ELISA, binding on a coated surface is turned into a signal by an enzyme label.
Assay [5] deals with Mouse CD28 (ELISA of Example 13) (mouse, UniProt P31041 20-150, limits assumed). Nature of the assay: ELISA.
The target in assay [6] is T5, Mouse CD28 on cells (mouse, UniProt P31041 20-218).
T5 construct: also called CD28 on mouse T cells
Nature of the assay: flow cytometry on mouse T cells, median fluorescence intensity; drawn table. On the set-up: AUC: unit not given beside the values.

Assay [7] addresses T4, Human CD28 (ELISAs of Examples 4 and 13). Nature of the assay: ELISA. The source holds these as a separate data set.
The target in assay [8] is T6, HER2 on SK-OV-3 cells (UniProt P04626 23-1255, limits assumed).
T6 construct: whole, on cells; also called HER2 antigen
Kind of assay: flow cytometry on SK-OV-3 cells, APC anti-human IgG Fc secondary antibody, mean fluorescence intensity, 4-parameter fit; drawn table.

Read-outs that look alike come from different tables or passages of the source.
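For Kd in this document: Anti-human Fc biosensors captured the antibodies, then His-tagged protein analytes at 100 nM associated for 300 s and dissociated for 300 s, fitted by a 1:1 Langmuir model.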
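For koff in this document: Anti-human Fc biosensors captured the antibodies, then His-tagged protein analytes at 100 nM associated for 300 s and dissociated for 300 s, fitted by a 1:1 Langmuir model.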
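For kon in this document: Anti-human Fc biosensors captured the antibodies, then His-tagged protein analytes at 100 nM associated for 300 s and dissociated for 300 s, fitted by a 1:1 Langmuir model.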

T5 sequence (P31041 20-218 limits assumed): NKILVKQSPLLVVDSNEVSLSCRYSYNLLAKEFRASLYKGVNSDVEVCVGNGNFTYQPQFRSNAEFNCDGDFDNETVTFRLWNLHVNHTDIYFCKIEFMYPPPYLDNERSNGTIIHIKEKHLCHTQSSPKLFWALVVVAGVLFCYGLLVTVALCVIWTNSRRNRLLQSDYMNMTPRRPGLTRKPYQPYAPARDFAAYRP
T1 sequence (P16410 36-161 limits assumed): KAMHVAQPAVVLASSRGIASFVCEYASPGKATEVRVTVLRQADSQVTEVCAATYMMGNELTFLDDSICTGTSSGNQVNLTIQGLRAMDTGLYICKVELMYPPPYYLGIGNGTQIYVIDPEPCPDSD
Chain of Mouse CD28 (ELISA of Example 13) (P31041 20-150 limits assumed): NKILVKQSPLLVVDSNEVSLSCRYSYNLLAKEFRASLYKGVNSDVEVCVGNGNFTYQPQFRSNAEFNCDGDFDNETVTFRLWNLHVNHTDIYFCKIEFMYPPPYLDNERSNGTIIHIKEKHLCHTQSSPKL

B1: TY24773 (antibody, human IgG4 S228P, kappa, V domains shown)
VH: EVQLVESGGGLVQPGGSLRLSCAASGYSISSGYHWGWIRQAPGKGLEWIGEIYHSGSTYYSPSLKSRVTISRDNSKNTLYLQLNSLRAEDTAVYYCARKDYYYALDYWGQGTLVTVSS
VL: DIQLTQSPSSLSASVGDRVTITCRASQSVDFYGKSFLHWYQQKPGKAPKLLIYAASTLQSGVPSRFSGSGSGTDFTLTISSLQPEDFATYYCQQSYRTPLTFGQGTKVEIKR
notes: hIgG4/S241P
One may read the Kd as a measure of binding affinity in units of concentration. As a reminder, the koff is the first-order rate constant of dissociation. A word on the kon: it is the second-order rate constant of association. A word on the EC50: it is the midpoint of the concentration-response curve. Turning to B1, the binding result in assay [1] is given as “no binding (tested: 100 nM CTLA4)”. In assay [2], this molecule registered a dissociation constant Kd of 8.29 nM, an off-rate (koff) of 0.000319 s⁻¹ and an association rate constant (kon) of 38500 M⁻¹ s⁻¹. Further, it took 0.71 nM to reach a half-maximal effect in assay [3] (EC50).

B2: TY24853 (antibody, human IgG4 S228P, kappa, V domains shown)
VH: EVQLVESGGGLVQPGGSLRLSCAASGYSITSGHHWSWIRQAPGKGLEWIGEIYHSGSTYYSPSLKSRVTISRDNSKNTLYLQLNSLRAEDTAVYYCARKDDYYAFDYWGQGTLVTVSS
VL: DIQLTQSPSSLSASVGDRVTITCRASESVDFYGISFLHWYQQKPGKAPKLLIYAASTLQSGVPSRFSGSGSGTDFTLTISSLQPEDFATYYCQQSYRTPITFGQGTKVEIKR
notes: hIgG4/S241P
For B2, in assay [1], the binding result is “no binding (tested: 100 nM CTLA4)”. Further, in assay [2], the dissociation constant Kd was 3.96 nM, the koff amounted to 0.000164 s⁻¹ and the on-rate (kon) turned out to be 41600 M⁻¹ s⁻¹. Further, in assay [3], the midpoint of the response, the EC50, lay at 0.43 nM.

B3: TY30123 (bispecific antibody, human IgG1, kappa, N297A)
light: DIQLTQSPSSLSASVGDRVTITCRASQSIRKYLNWYQQKPGKAPKLLIYAASTLQSGVPSRFSGSGSGTDFTLTISSLQPEDFATYFCSQGTHVPFTFGQGTKVEIKRTVAAPSVFIFPPSDEQLKSGTASVVCLLNNFYPREAKVQWKVDNALQSGNSQESVTEQDSKDSTYSLSSTLTLSKADYEKHKVYACEVTHQGLSSPVTKSFNRGEC
heavy: EVQLVESGGGLVQPGGSLRLSCAASGFTFSGYGIHWVRQAPGKGLEWIGWISPSGGDTKYAQKFQGRVTISRDNSKNTLYLQLNSLRAEDTAVYYCARGGTVVYFDYWGQGTLVTVSSASTKGPSVFPLAPSSKSTSGGTAALGCLVKDYFPEPVTVSWNSGALTSGVHTFPAVLQSSGLYSLSSVVTVPSSSLGTQTYICNVNHKPSNTKVDKKVEPKSCDKTHTCPPCPAPELLGGPSVFLFPPKPKDTLMISRTPEVTCVVVDVSHEDPEVKFNWYVDGVEVHNAKTKPREEQYASTYRVVSVLTVLHQDWLNGKEYKCKVSNKALPAPIEKTISKAKGQPREPQVYTLPPSRKKLTKNQVKLTCLVKGFYPSDIAVEWESNGQPENNYKTTPPVLDCDGSFFLYSKLTVDKSRWQQGNVFSCSVMHEALHNHYTQKSLSLSPGK
chain: EVQLVESGGGLVQPGGSLRLSCAASGFSLSTGGVGVGWIRQAPGKGLEWIGEIYHSGSTYYSPSLKSRVTISRDNSKNTLYLQLNSLRAEDTAVYYCARYGYYYYDFDYWGQGTLVTVSSGGGGSGGGGSGGGGSGGGGSDIQLTQSPSSLSASVGDRVTITCRASQSVDFHGISFLHWYQQKPGKAPKLLIYAASSLQSGVPSRFSGSGSGTDFTLTISSLQPEDFATYYCQQSYRSPRTFGQGTKVEIKEPKSSDKTHTCPPCPAPELLGGPSVFLFPPKPKDTLMISRTPEVTCVVVDVSHEDPEVKFNWYVDGVEVHNAKTKPREEQYASTYRVVSVLTVLHQDWLNGKEYKCKVSNKALPAPIEKTISKAKGQPREPQVYTDPPSRDELTKNQVSLTCLVDGFYPSDIAVEWESNGQPENCYKTTPPVLDSDGSFFLYSKLTVDKSRWQQGNVFSCSVMHEALHNHYTQDSLSLSPGK
notes: anti-B7H3 Fab x CD28 scFv BC10621 (VH-VL)-Fc
On to B3, for which the EC50 in assay [4] was 3.59 nM. Further, the midpoint of the response in assay [5], the EC50, lay at 96.4 nM. Also, in assay [6], the AUC is 3820, the EC50 was determined as 76.2 nM and the “Max MFI” value was found to be 1980.

B4: TY29815 (bispecific antibody, human IgG1, kappa, N297A)
light: DIQLTQSPSSLSASVGDRVTITCRASQSIPSFLNWYQQKPGKAPKLLIYAASSLQSGVPSRFSGSGSGTDFTLTISSLQPEDFATYYCQHYISWPRQFTFGQGTKVEIKRTVAAPSVFIFPPSDEQLKSGTASVVCLLNNFYPREAKVQWKVDNALQSGNSQESVTEQDSKDSTYSLSSTLTLSKADYEKHKVYACEVTHQGLSSPVTKSFNRGEC
heavy: EVQLVESGGGLVQPGGSLRLSCAASGYSISSGYYWGWIRQAPGKGLEWIGIIYPSGGGTNYAQKFQGRVTISRDNSKNTLYLQLNSLRAEDTAVYYCARGGGLGFDYWGQGTLVTVSSASTKGPSVFPLAPSSKSTSGGTAALGCLVKDYFPEPVTVSWNSGALTSGVHTFPAVLQSSGLYSLSSVVTVPSSSLGTQTYICNVNHKPSNTKVDKKVEPKSCDKTHTCPPCPAPELLGGPSVFLFPPKPKDTLMISRTPEVTCVVVDVSHEDPEVKFNWYVDGVEVHNAKTKPREEQYASTYRVVSVLTVLHQDWLNGKEYKCKVSNKALPAPIEKTISKAKGQPREPQVYTLPPSRKKLTKNQVKLTCLVKGFYPSDIAVEWESNGQPENNYKTTPPVLDCDGSFFLYSKLTVDKSRWQQGNVFSCSVMHEALHNHYTQKSLSLSPGK
chain: EVQLVESGGGLVQPGGSLRLSCAASGFSLSTGGVGVSWIRQAPGKGLEWIGEIYHSGSTYYSPSLKSRVTISRDNSKNTLYLQLNSLRAEDTAVYYCARYEYYYYDFDYWGQGTLVTVSSGGGGSGGGGSGGGGSGGGGSDIQLTQSPSSLSASVGDRVTITCRASQSVDFHGISFLHWYQQKPGKAPKLLIYAASSLQSGVPSRFSGSGSGTDFTLTISSLQPEDFATYYCQQSYRSPRTFGQGTKVEIKEPKSSDKTHTCPPCPAPELLGGPSVFLFPPKPKDTLMISRTPEVTCVVVDVSHEDPEVKFNWYVDGVEVHNAKTKPREEQYASTYRVVSVLTVLHQDWLNGKEYKCKVSNKALPAPIEKTISKAKGQPREPQVYTDPPSRDELTKNQVSLTCLVDGFYPSDIAVEWESNGQPENCYKTTPPVLDSDGSFFLYSKLTVDKSRWQQGNVFSCSVMHEALHNHYTQDSLSLSPGK
notes: also called TY29815 (WT); wild type anti-PD-L1xCD28 bsAb
Consider B4, for which, in assay [7], a half-maximal effect (EC50) was put at 22.3 nM.

B5: TY30413 (bispecific antibody, human IgG1, kappa, N297A)
light: DIQLTQSPSSLSASVGDRVTITCRASQSIPSFLNWYQQKPGKAPKLLIYAASSLQSGVPSRFSGSGSGTDFTLTISSLQPEDFATYYCQHYISWPRQFTFGQGTKVEIKRTVAAPSVFIFPPSDEQLKSGTASVVCLLNNFYPREAKVQWKVDNALQSGNSQESVTEQDSKDSTYSLSSTLTLSKADYEKHKVYACEVTHQGLSSPVTKSFNRGEC
heavy: EVQLVESGGGLVQPGGSLRLSCAASGYSISSGYYWGWIRQAPGKGLEWIGIIYPSGGGTNYAQKFQGRVTISRDNSKNTLYLQLNSLRAEDTAVYYCARGGGLGFDYWGQGTLVTVSSASTKGPSVFPLAPSSKSTSGGTAALGCLVKDYFPEPVTVSWNSGALTSGVHTFPAVLQSSGLYSLSSVVTVPSSSLGTQTYICNVNHKPSNTKVDKKVEPKSCDKTHTCPPCPAPELLGGPSVFLFPPKPKDTLMISRTPEVTCVVVDVSHEDPEVKFNWYVDGVEVHNAKTKPREEQYASTYRVVSVLTVLHQDWLNGKEYKCKVSNKALPAPIEKTISKAKGQPREPQVYTLPPSRKKLTKNQVKLTCLVKGFYPSDIAVEWESNGQPENNYKTTPPVLDCDGSFFLYSKLTVDKSRWQQGNVFSCSVMHEALHNHYTQKSLSLSPGK
chain: EVQLVESGGGLVQPGGSLRLSCAASGFSLSTGGVGVSWIRQAPGKGLEWIGEIYHSGSTYYSPSLKSRVTISRDNSKNTLYLQLNSLRAEDTAVYYCARYEYYHYDFDYWGQGTLVTVSSGGGGSGGGGSGGGGSGGGGSDIQLTQSPSSLSASVGDRVTITCRASQSVDFHGISFLHWYQQKPGKAPKLLIYAASSLQSGVPSRFSGSGSGTDFTLTISSLQPEDFATYYCQQSYRSPRTFGQGTKVEIKEPKSSDKTHTCPPCPAPELLGGPSVFLFPPKPKDTLMISRTPEVTCVVVDVSHEDPEVKFNWYVDGVEVHNAKTKPREEQYASTYRVVSVLTVLHQDWLNGKEYKCKVSNKALPAPIEKTISKAKGQPREPQVYTDPPSRDELTKNQVSLTCLVDGFYPSDIAVEWESNGQPENCYKTTPPVLDSDGSFFLYSKLTVDKSRWQQGNVFSCSVMHEALHNHYTQDSLSLSPGK
notes: anti-PD-L1 Fab x CD28 scFv VH-VL (YYHY)-Fc
In assay [7], B5 showed an EC50 of 26.8 nM.

B6: TY25238 (bispecific antibody)
chain 1: not shown
chain 2: not shown
chain 3: QAVVTQEPSLTVSPGGTVTLTCGSSTGAVTTSNYPNWVQQKPGQAPRGLIGGTNKRAPGVPARFSGSLLGGKAALTLSGAQPEDEAEYYCALWYSNLWVFGGGTKLTVLGGGGSGGGGSGGGGSGGGGSEVQLVESGGGLVQPGGSLRLSCAASGFTFNTYAINWVRQAPGKGLEWVGRIRSKYNNYATYYAESVKGRFTISRDDSKNTLYLQINSLRAEDTAVYYCVRHGNFGTSYVSWFAYWGQGTLVTVSSEPKSSDKTHTCPPCPAPELLGGPSVFLFPPKPKDTLMISRTPEVTCVVVDVSHEDPEVKFNWYVDGVEVHNAKTKPREEQYASTYRVVSVLTVLHQDWLNGKEYKCKVSNKALPAPIEKTISKAKGQPREPQVYTDPPSRDELTKNQVSLTCLVDGFYPSDIAVEWESNGQPENCYKTTPPVLDSDGSFFLYSKLTVDKSRWQQGNVFSCSVMHEALHNHYTQDSLSLSPGK
In assay [8], B6 had an EC50 of 3.74 nM.
